In patent publication US12319742 (SHATTUCK LABS, dated 2025):

Key:
[1] = target: T1, biotinylated recombinant human TNFRSF25-His tagged (Acro #TN5-H52H3) (human, UniProt Q93038 25-199, biotinylated); assay: SPR (Biacore 8K); biotinylated TNFRSF25-His on streptavidin chip SA, SL-061 flowed; 1:1 binding
T1 construct: treated as the same protein; also called recombinant biotin-conjugated human TNFRSF25 protein; DR3
T1 sequence (looked up): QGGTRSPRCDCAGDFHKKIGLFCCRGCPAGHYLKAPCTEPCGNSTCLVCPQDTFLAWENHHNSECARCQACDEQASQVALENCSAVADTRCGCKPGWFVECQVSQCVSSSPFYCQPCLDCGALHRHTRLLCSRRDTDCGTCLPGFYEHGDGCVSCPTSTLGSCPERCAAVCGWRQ
Procedure: (FIG. 5A) BLI assay was performed using the Octet Red 96e instrument. Streptavidin biosensors were loaded with biotinylated recombinant human TNFRSF25-His tagged (Acro #TN5-H52H3) as the ligand. […] (FIG. 5B) SPR was performed on a Biacore 8K instrument.

[2] = target: T2, biotinylated recombinant human FcRn-His tagged protein (Acro #FCM-H82W7) (human, UniProt P55899 24-297; P61769 21-119, biotinylated); assay: BLI/Octet; biotinylated human FcRn-His on streptavidin biosensor; pH 6.0
T2 construct: also called hFcRn; neonatal Fc receptor
T2 sequence (P55899 24-297 limits assumed, chain 1 of 2): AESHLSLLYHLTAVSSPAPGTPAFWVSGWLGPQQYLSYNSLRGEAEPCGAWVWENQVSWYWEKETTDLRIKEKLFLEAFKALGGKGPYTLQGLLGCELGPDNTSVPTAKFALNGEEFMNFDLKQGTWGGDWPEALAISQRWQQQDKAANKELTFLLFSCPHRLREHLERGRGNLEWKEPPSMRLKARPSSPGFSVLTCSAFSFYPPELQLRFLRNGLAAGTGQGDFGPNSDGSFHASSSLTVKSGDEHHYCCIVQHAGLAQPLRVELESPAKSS
T2 sequence (P61769 21-119 limits assumed, chain 2 of 2): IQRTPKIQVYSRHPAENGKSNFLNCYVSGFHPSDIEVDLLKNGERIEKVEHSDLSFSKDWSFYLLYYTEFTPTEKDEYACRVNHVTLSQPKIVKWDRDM
Procedure: (§1) Figure 5D: FIG. 5D. FcRn binding kinetics by anti-TNFRSF25 antibodies. BLI assay was performed using the Octet Red 96e instrument. Streptavidin biosensors were loaded with biotinylated recombinant human(h) FcRn-His tagged protein (Acro #FCM-H82W7) as the ligand. During the association phase, biosensors were incubated with anti-DR3 candidate antibodies at various concentrations for 600 seconds, followed by a 600-second dissociation phase.
(§2) To detect binding of certain whole antibodies to the neonatal Fc receptor (FcRn) at neutral and acidic pH conditions, streptavidin biosensors were loaded with biotinylated recombinant human FcRn-His tagged protein (Acro #FCM-H82W7) as the ligand. During the association phase, biosensors were incubated with anti-TNFRSF25 antibodies at various concentrations for 600 seconds, followed by a 600 second dissociation phase.

[3] = target: T3, TNFRSF25 on lymphocytes in human PBMCs (human, UniProt Q93038 25-417); assay: flow cytometry MFI on CD8+ T cells of human PBMCs (panel 1003_CD8+T), no stimulation, APC anti-human Fc
T3 construct: whole, on cells; also called TNFRSF25 on CD4+ and CD8+ T cells and NK cells
T3 sequence (looked up): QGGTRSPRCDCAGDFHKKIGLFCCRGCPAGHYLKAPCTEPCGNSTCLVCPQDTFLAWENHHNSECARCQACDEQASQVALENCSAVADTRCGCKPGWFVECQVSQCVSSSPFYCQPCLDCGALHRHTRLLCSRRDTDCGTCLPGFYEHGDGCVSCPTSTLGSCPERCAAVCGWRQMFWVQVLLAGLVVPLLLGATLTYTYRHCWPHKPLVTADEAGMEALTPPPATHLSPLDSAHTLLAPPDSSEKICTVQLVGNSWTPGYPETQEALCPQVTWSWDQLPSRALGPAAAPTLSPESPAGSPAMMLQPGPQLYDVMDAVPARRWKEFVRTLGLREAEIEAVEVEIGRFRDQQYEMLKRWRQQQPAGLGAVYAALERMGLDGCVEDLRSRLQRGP

[4] = target: T2, biotinylated recombinant human FcRn-His …; assay: BLI/Octet; biotinylated human FcRn-His on streptavidin biosensor; pH 7.4
Procedure: as §1, §2

[5] = target: T1, biotinylated recombinant human …; assay: MSD competition; TNFRSF25 on plate, antibody titrated, then recombinant TL1A (TL1A-rabbit Fc) as competitor
Procedure: Figure 6: FIG. 6. […] Human TNFRSF25 was precoated on MSD assay plates followed by incubating with various concentrations of anti-TNFRSF25 antibodies.

[6] = target: T3, TNFRSF25 on lymphocytes in human PBMCs; assay: flow cytometry MFI on CD4+ T cells of human PBMCs, IL12+IL18 stimulation 24 h, APC anti-human Fc
Procedure: (§3) Human PBMCs were stimulated with either IL12+IL18 or anti-CD3/CD28 for 24 hours to assess binding of anti-TNFRSF25 to lymphocyte subsets.
(§4) Figure 9: FIG. 9. […] Figure 10: FIG. 10.

[7] = target: T3, TNFRSF25 on lymphocytes in human PBMCs; assay: flow cytometry MFI on CD4+ T cells of human PBMCs, anti-CD3/CD28 stimulation 24 h, APC anti-human Fc
Procedure: as §3, §4

CD40 = target: T4, CD40; assay: flow cytometry on engineered mammalian cells overexpressing CD40, APC anti-human Fc
T4 construct: member of group m24; also called CD40 overexpressed in engineered mammalian cells
T4 sequence (chain, as listed by the source limits assumed): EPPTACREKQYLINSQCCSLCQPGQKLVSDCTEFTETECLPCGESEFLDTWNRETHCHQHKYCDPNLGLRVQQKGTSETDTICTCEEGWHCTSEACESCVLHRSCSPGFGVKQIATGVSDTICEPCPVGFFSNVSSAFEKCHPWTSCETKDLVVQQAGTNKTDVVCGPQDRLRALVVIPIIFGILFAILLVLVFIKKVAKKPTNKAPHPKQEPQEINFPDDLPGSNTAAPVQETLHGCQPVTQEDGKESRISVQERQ

[8] = target: T3, TNFRSF25 on lymphocytes in human PBMCs; assay: flow cytometry MFI on CD8+ T cells of human PBMCs (panel 1003_CD8+T), anti-CD3/CD28 stimulation 24 h, APC anti-human Fc
Procedure: as §3, §4

[9] = target: T3, TNFRSF25 on lymphocytes in human PBMCs; assay: flow cytometry MFI on CD8+ T cells of human PBMCs (panel 1003_CD8+T), IL12+IL18 stimulation 24 h, APC anti-human Fc
Procedure: as §3, §4

[10] = target: T3, TNFRSF25 on lymphocytes in human PBMCs; assay: flow cytometry MFI on CD4+ T cells of human PBMCs, no stimulation, APC anti-human Fc
[11] = target: FcγR1 (CD64), BLI reagent (UniProt P12314 16-288, limits assumed); assay: BLI; antibody as analyte at 300 nM on FcγR1
Sequence of FcγR1 (CD64), BLI reagent (P12314 16-288 limits assumed): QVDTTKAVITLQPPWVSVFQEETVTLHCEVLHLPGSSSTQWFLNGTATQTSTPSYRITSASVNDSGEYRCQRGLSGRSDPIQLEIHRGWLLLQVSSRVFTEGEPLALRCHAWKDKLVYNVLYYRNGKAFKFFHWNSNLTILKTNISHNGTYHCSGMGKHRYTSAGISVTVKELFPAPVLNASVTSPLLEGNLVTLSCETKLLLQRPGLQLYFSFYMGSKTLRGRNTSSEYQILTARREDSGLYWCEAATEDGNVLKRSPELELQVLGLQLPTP

[12] = target: T3, TNFRSF25 on lymphocytes in human PBMCs; assay: flow cytometry MFI on NK cells of human PBMCs, anti-CD3/CD28 stimulation 24 h, APC anti-human Fc
Procedure: as §3, §4

B1: SL-061 (antibody, human IgG1, kappa)
heavy: QVQLQQSGPGLVKPSQTLSLTCAISGDSVSGYSAAWNWIRQSPSRGLEWLGRTYYRSKWYNDYAVSVKSRITINPDTSKNQFSLQLNSVTPEDTAVYYCARDYYGSESYYNRGYYYYGMDVWGQGTTVTVSSASTKGPSVFPLAPSSKSTSGGTAALGCLVKDYFPEPVTVSWNSGALTSGVHTFPAVLQSSGLYSLSSVVTVPSSSLGTQTYICNVNHKPSNTKVDKKVEPKSCDKTHTCPPCPAPEAAGAPSVFLFPPKPKDTLMISRTPEVTCVVVDVSHEDPEVKFNWYVDGVEVHNAKTKPREEQYNSTYRVVSVLTVLHQDWLNGKEYKCKVSNKALPAPIEKTISKAKGQPREPQVYTLPPSREEMTKNQVSLTCLVKGFYPSDIAVEWESNGQPENNYKTTPPVLDSDGSFFLYSKLTVDKSRWQQGNVFSCSVMHEALHNHYTQKSLSLSPGK
light: AIQLTQSPSSLSASVGDRVTITCRASPGISSALAWYQQKPGKAPKLLMYDESSQESGVPSRFSGSGSGTDFTLTISSLQPEDFATYYCQQFNDYPLTFGGGTKVEIKRTVAAPSVFIFPPSDEQLKSGTASVVCLLNNFYPREAKVQWKVDNALQSGNSQESVTEQDSKDSTYSLSSTLTLSKADYEKHKVYACEVTHQGLSSPVTKSFNRGEC
notes: Same variable regions as SL-033; IgG1 with L234A/L235A+G237A; also called clone 061; SL-061 (L234A/L235A+G237A)
B1 was tested. Which Kd [1] did it give?
Its Kd is 0.00136 nM.

And the Kd [2]?
The Kd was 4.41 nM.

What about the koff [2] of the same binder?
The koff was 0.00104 s⁻¹.

What about the kon [2] of the same binder?
The kon was 235000 M⁻¹ s⁻¹.

What about the EC50 [3] of the same binder?
The EC50 was 0.068 nM.

And the Kd [4]?
Its Kd is 7.41 nM.

What about the koff [4] of the same binder?
Its koff is 0.00327 s⁻¹.

What about the kon [4] of the same binder?
The kon was 441000 M⁻¹ s⁻¹.

What about the IC50 [5] of the same binder?
The IC50 was 0.056 nM.

What about the EC50 [6] of the same binder?
Its EC50 is 0.035 nM.

What about the EC50 [7] of the same binder?
The EC50 was 0.059 nM.

Does B1 bind (CD40)?
Result: no binding (tested: about 20 nM)

What about the EC50 [8] of the same binder?
The EC50 was 0.059 nM.

And the EC50 [9]?
Its EC50 is 0.043 nM.

What about the EC50 [10] of the same binder?
The EC50 was 0.035 nM.

Does B1 bind [11]?
Result: no binding (tested: 300 nM)

And the EC50 [12]?
The EC50 was 0.054 nM.
